Residue numbers refer to the chain shown, from its start. Read-outs that look alike come from different tables or passages of the source.
T1: h/m apical domain chimera (SEQ ID NO:112) (human/mouse chimera)
T1 construct: also called chimeric TfR1 consisting of human apical domain grafted on mouse TfR1 ectodomain
T1 chain: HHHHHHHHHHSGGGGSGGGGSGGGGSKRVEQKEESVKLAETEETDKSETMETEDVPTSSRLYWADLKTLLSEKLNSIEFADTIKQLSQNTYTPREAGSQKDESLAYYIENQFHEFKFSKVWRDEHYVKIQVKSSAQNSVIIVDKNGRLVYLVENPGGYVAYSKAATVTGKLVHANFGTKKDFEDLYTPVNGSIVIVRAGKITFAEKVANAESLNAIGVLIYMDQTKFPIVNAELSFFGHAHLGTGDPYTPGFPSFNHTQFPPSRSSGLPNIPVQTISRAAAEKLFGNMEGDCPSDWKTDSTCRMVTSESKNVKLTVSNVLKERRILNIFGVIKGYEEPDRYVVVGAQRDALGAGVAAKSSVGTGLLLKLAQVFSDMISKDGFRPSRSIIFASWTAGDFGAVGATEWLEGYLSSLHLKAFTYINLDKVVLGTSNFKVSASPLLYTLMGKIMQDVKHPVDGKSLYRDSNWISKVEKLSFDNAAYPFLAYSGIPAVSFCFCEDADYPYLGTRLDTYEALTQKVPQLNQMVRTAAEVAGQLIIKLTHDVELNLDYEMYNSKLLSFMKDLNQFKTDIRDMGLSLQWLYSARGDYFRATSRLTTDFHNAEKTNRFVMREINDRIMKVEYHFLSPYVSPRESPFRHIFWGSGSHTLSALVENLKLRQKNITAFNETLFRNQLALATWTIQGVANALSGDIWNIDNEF

T2: h/m helical domain chimera (SEQ ID NO:113) (human/mouse chimera, UniProt Q62351 90-763 (mouse entry))
T2 construct: also called chimeric TfR1 consisting of human helical domain grafted on mouse TfR1 ectodomain
T2 chain: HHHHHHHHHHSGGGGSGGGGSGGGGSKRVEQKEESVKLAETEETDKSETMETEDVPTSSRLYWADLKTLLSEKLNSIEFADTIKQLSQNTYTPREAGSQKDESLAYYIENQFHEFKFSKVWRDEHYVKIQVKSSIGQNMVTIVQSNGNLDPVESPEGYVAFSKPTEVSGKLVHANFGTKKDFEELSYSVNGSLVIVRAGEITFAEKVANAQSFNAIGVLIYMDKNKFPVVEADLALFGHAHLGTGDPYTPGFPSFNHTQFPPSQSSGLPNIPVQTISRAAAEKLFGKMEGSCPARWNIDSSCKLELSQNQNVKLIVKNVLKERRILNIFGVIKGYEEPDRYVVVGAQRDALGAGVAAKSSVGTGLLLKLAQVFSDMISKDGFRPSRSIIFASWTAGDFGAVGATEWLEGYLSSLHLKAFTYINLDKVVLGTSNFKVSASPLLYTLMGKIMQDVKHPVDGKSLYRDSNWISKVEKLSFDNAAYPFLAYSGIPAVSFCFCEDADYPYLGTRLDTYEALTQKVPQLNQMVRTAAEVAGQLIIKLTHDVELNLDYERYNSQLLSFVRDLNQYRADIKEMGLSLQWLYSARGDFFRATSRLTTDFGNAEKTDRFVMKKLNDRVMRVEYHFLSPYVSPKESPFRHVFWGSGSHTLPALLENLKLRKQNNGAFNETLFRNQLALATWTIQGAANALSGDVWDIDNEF

T3: truncated cTfR1 of SEQ ID NO:123 (cynomolgus monkey, UniProt Q5RDH6 122-760 (Pongo abelii entry))
T3 construct: also called cynomolgus TfR1
T3 chain: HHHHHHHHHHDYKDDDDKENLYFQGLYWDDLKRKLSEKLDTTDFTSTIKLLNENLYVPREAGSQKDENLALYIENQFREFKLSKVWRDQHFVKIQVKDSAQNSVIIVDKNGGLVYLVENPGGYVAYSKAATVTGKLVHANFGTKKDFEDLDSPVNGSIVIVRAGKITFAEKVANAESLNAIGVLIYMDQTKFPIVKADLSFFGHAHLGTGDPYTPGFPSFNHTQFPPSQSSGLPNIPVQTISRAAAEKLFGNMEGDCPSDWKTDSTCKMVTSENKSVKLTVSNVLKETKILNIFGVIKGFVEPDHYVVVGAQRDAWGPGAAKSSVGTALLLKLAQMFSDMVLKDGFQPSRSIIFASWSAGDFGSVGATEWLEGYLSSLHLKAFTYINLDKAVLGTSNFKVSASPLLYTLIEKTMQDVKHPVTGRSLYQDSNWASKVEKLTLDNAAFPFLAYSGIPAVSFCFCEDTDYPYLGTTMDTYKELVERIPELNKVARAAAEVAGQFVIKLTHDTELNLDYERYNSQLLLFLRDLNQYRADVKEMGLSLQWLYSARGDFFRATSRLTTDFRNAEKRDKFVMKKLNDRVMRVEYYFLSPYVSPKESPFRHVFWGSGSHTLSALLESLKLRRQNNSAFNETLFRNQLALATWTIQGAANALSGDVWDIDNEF

B1: 24B4 (antibody, V domains shown)
VH: EVQLQQFGAELVKPGTSVKISCKASGYTFTDYNMDWVKQGHGKGLEWIGDINPNYDTTSYSQKFKGKATLTVDKSSSTAYMELRSLTSEDTAVYYCARSEAGNYYWYFDVWGAGTTVTVSS
VL: DIVMSQSPSSLAVSVGEKVTMSCKSSQSLLYSSNRKNYLAWYRQKPGQSPKLLIYWASTRESGVPDRFTGSGSGTDFTLTISSVKAEDLAVYSCQQYYNYPYTFGGGTKLEIK
notes: also called mouse antibody 24B4; clone 24B4
B2: BA001 (bispecific antibody, human IgG1, kappa)
light: EIVLTQSPLSLSVTLGQSASISCRSSQSLLDSNGKTYLHWFILRPGQSPRRLIYLVSILDSGVPDRFSGSGSGTDFTLKISRVEAEDVGVYYCVQGTHFPFTFGSGTKLEIKRTVAAPSVFIFPPSDEQLKSGTASVVCLLNNFYPREAKVQWKVDNALQSGNSQESVTEQDSKDSTYSLSSTLTLSKADYEKHKVYACEVTHQGLSSPVTKSFNRGEC
heavy 1: not shown
heavy 2: EVQLVQSGAEVVKPGASVRLSCKASGYSFTGFTMNWVRQALGQGLEWMGLINPYNGVTTYNQKFKGRLTMTRDMSTRTVYMDLSSLTYEDTAVYYCTREGNWEGVYWGQGTLVTVSSASTKGPSVFPLAPSSKSTSGGTAALGCLVKDYFPEPVTVSWNSGALTSGVHTFPAVLQSSGLYSLSSVVTVPSSSLGTQTYICNVNHKPSNTKVDKKVEPKSCDKTHTCPPCPAPELLGGPSVFLFPPKPKDTLMISRTPEVTCVVVDVSHEDPEVKFNWYVDGVEVHNAKTKPREEQYNSTYRVVSVLTVLHQDWLNGKEYKCAVSNKALPAPIEKTISKAKGQPREPQVYTLPPCRDELTKNQVSLWCLVKGFYPSDIAVEWESNGQPENNYKTTPPVLDSDGSFFLYSKLTVDKSRWQQGNVFSCSVMHEALHNHYTQKSLSLSPGGGGGSGGGGSGGGGSGGGGSDIQMTQSPSSVSASVGDRVTITCKSSQSLLYSTNQKNYLAWYQQKPGKAPKLLIYWASTRESGVPSRFSGSGSGTDFTLTISSLQPEDFATYYCQQYFIYPRTFGCGTKVEIKGGGGSGGGGSGGGGSGGGGSEVQLVQSGAEVKKPGSSVKVSCKASGYIFTDYNMDWVRQAPGQCLEWIGDINPDADTTSYNEKFKGRATLTVDKSTSTAYMELSSLRSEDTAVYYCARGGYSGSSYYHPMDYWGQGTLVTVSS
B3: BA002 (bispecific antibody, human IgG1, kappa)
light: B2 light
heavy 1: not shown
heavy 2: B2 heavy 2 with Y497A, A654Y

Columns and labels:
[1] = target: T1, h/m apical domain chimera (SEQ ID …); assay: indirect ELISA: plate coated with 1 µg/ml h/m apical domain chimera, mouse IgG titrated, anti-mouse IgG-HRP; x axis printed as 'TfR (ng/ml)'
Method: Plasma samples serially diluted from a starting dilution of 1/450 or hybridoma supernatants diluted 1/2 were added to the plates (50 μl/well; dilution buffer: PBS with 0.1% BSA and 0.05% TWEEN®-20) and incubated for 2 h at room temperature and then the plates were washed four times. […] After another wash (as above), 50 μl/well TMB substrate (K-Blue® Aqueous, Neogen) was added, and the reaction was stopped after 10-15 min with 50 μl/well of 0.5 M H₂SO₄. The optical density at 450 nm was read using a plate reader (Tecan). The endpoint titers were defined as the dilution above the average of the blank wells (background) plus 3 standard deviations of the blank wells.
(§1) In the ELISA experiment, human, mouse or three different chimeric TfR1 receptors were used to coat ELISA plates (FIGS. 30A-30E). The ELISA protocol was slightly modified as follows from the indirect ELISA described in Example 15. […] The coated plates were then blocked. Dilution series of mouse IgG of the analyzed antibodies were prepared in PBS and incubated on the ELISA plates. Unbound antibodies were then washed off before incubating wells with a HRP-conjugated secondary, anti-mouse-IgG for 1 h. Plates were then washed again before addition of HRP substrate TMB for development and detection of antibody binding to the wells. TMB development was stopped by adding 0.5 M H₂SO₄ to the wells and ELISA responses measured as the OD at 450 nm in an ELISA plate reader.

[2] = target: T2, h/m helical domain chimera (SEQ ID …); assay: indirect ELISA: plate coated with 1 µg/ml h/m helical domain chimera, mouse IgG titrated, anti-mouse IgG-HRP; x axis printed as 'TfR (ng/ml)'
Method: as §1

AβpE3-40 monomer [3] = target: T4, AβpE3-40 monomer (UniProt P05067 674-711, pyroglutamate at position 3 (N-terminal residue)); assay: cell-based or functional assay
T4 sequence (P05067 674-711): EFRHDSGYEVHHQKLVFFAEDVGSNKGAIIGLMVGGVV

AβpE3-40 monomer [4] = target: T4, AβpE3-40 monomer; assay: SPR, antibody immobilised, monomer injected, 1:1 fit
Method: Single cycle kinetics with the binding molecules immobilized on a CM5 chip was used to measure binding to the AβpE3-40 monomer. For the measurements, 5 μg/ml of analyte binding molecule was immobilized on the chip. […] Regeneration of the surface between cycles was done by injecting 30 μl 3 M MgCl₂ (Cytiva, cat. No. 29234600). The binding data was fitted to a 1:1 interaction model.

AβpE3-40 monomer [5] = target: T4, AβpE3-40 monomer; assay: as above; remark: listed apart in the source
[6] = target: T5, truncated hTfR1 of SEQ ID NO:122 (human, UniProt P02786 122-760); assay: SPR, FLAG-captured TfR1, bispecific injected, 1:1 fit
T5 construct: also called human TfR1; Human TfR1

[7] = target: T5, truncated hTfR1 of SEQ ID NO:122; assay: as above; remark: listed apart in the source
Method: (§2) Binding of the purified bispecific binding molecules produced in Example 47 to human and cynomolgus TfR1 was evaluated using SPR on a Biacore 8K instrument (Cytiva). […] The interaction was measured using the single cycle kinetics method with a contact time of 120 s at a flow rate of 30 μl/min followed by a dissociation time of 600 s. Regeneration of the surface between cycles was done by injecting 10 mM glycine-HCl, pH 1.7. The binding data was fitted to a 1:1 interaction model. The tested molecules were diluted in HBS-EP+ (Cytiva, #BR100669). Experiments were performed at 25° C.

[8] = target: T3, truncated cTfR1 of SEQ ID NO:123; assay: as above
Method: as §2

AβpE3-40 monomer [9] = target: T4, AβpE3-40 monomer; assay: inhibition ELISA, antigen titrated in solution, AβpE3-40 coat
Method: (§3) The tested molecules were incubated at a fixed concentration (0.1 μg/ml) with titrating concentrations of the different AβpE3 antigens. After incubation for 45 min at 900 rpm to reach equilibrium, the samples were added to a blocked and washed ELISA plate with an AβpE3-40 coat (0.5 μM). The samples were incubated on the plate for 25 min without shaking followed by washing, incubation with detection antibody, another washing step and finally incubation with alkaline phosphatase substrate.

AβpE3-42 protofibrils = target: T6, AβpE3-42 protofibrils (UniProt P05067 674-713, pyroglutamate at position 3 (N-terminal residue)); assay: as above
T6 construct: range 3-42 (Aβ numbering); Soluble aggregates made from AβpE3-42 peptide, purified in the void peak of SEC; also called AβpE3-42 PF
T6 sequence (P05067 674-713): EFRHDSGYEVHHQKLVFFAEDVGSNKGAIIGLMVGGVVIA
Method: as §3

| Binder | binding result [1] | binding result [2] | Uptake of AβpE3-40 monomers in THP-1 cells, EC50 (AβpE3-40 monomer [3]) [nM] | Kd (AβpE3-40 monomer [4]) [nM] | koff (AβpE3-40 monomer [4]) [s⁻¹] | kon (AβpE3-40 monomer [4]) [M⁻¹ s⁻¹] | Kd (AβpE3-40 monomer [5]) [nM] | koff (AβpE3-40 monomer [5]) [s⁻¹] | kon (AβpE3-40 monomer [5]) [M⁻¹ s⁻¹] | Kd [6] [nM] | koff [6] [s⁻¹] | kon [6] [M⁻¹ s⁻¹] | Kd [7] [nM] | koff [7] [s⁻¹] | kon [7] [M⁻¹ s⁻¹] | Kd [8] [nM] | koff [8] [s⁻¹] | kon [8] [M⁻¹ s⁻¹] | IC50 (AβpE3-40 monomer [9]) [nM] | IC50 (AβpE3-42 protofibrils) [nM] |
| --- | --- | --- | --- | --- | --- | --- | --- | --- | --- | --- | --- | --- | --- | --- | --- | --- | --- | --- | --- | --- |
| B1 | no binding (tested: about 600 ng/ml) | no binding (tested: about 600 ng/ml) |  |  |  |  |  |  |  |  |  |  |  |  |  |  |  |  |  |  |
| B2 |  |  | 2 | 2.17 | 0.00012 | 55800 | 2.1 | 0.00011 | 54000 | 174 | 0.0038 | 22000 | 190 | 0.0042 | 22000 | 525 | 0.01 | 19000 | 1.1 | 3.1 |
| B3 |  |  |  | 2.38 | 0.000127 | 53500 |  |  |  | 35.6 | 0.0031 | 87000 |  |  |  |  |  |  | 0.8 | 3.2 |

Source: patent US20250388664A1 (BIOARCTIC, published 2025)
